Results on 6 substances are retold here after patent US20230357367A1.

Read-outs that look alike come from different tables or passages of the source.

What all share (test): cell-based or functional assay
Assay [1] has as its target SARS-CoV-2 Omicron BA.4/5+K444T Spike on pseudovirus (SARS-CoV-2).
Assay [2] addresses spike (SARS-CoV-2, BA.1.1 P1162S) (SARS-CoV-2).
Assay [3] has as its target spike (SARS-CoV-2, BA.5.8 P1162L) (SARS-CoV-2).
Assay [4] addresses spike (SARS-CoV-2, D614G) (SARS-CoV-2) (UniProt P0DTC2).
For assay [5] the target is unchanged. This is another data set of the same source.
For assay [6] the target is unchanged. This is another data set of the same source.
The target is the same in assay [7]. The source holds these as a separate data set.
For assay [8] the target is unchanged. The source holds these as a separate data set.

As for Bebtelovimab (antibody), the Neutralization - IC50, pseudovirus in assay [1] is 1220 ng/mL.
Same read-out and setting: the figure for “Sotrovimab VH/VL (human IgG1 molecule expressing the same variable regions of Sotrovimab) (antibody)” is 304 ng/mL.
In assay [2], bebtelovimab (antibody) had an EC50, pseudovirus neutralization of 0.12 ng/mL; an EC80, pseudovirus neutralization of 1.4 ng/mL; an EC90, pseudovirus neutralization of 6 ng/mL; an Emax, pseudovirus neutralization (% neutralization) of 100. In assay [3], the EC50, pseudovirus neutralization is 0.13 ng/mL; the EC80, pseudovirus neutralization is 1.1 ng/mL; the EC90, pseudovirus neutralization stood at 3.7 ng/mL; the Emax, pseudovirus neutralization (% neutralization) was 99.9. In assay [4], this substance displayed an EC50, pseudovirus neutralization of 0.57 ng/mL; an EC50, pseudovirus neutralization, TMPRSS2-Vero E6, with isotype of 1.7 ng/mL; an EC50, pseudovirus neutralization, Vero E6, with isotype of 0.64 ng/mL; an EC80, pseudovirus neutralization of 4.9 ng/mL. In assay [4], the EC80, pseudovirus neutralization, TMPRSS2-Vero E6, with isotype was determined as 11 ng/mL; the EC80, pseudovirus neutralization, Vero E6, with isotype was 2.7 ng/mL; the EC90, pseudovirus neutralization was determined as 18 ng/mL; the EC90, pseudovirus neutralization, TMPRSS2-Vero E6, with isotype turned out to be 32 ng/mL. In assay [4], the EC90, pseudovirus neutralization, Vero E6, with isotype came out at 6.1 ng/mL; the Emax, pseudovirus neutralization (% neutralization) was 99.9; the Emax, pseudovirus neutralization, TMPRSS2-Vero E6, with isotype (% neutralization) worked out at 99.4; the Emax, pseudovirus neutralization, Vero E6, with isotype (% neutralization) came to 99.4. Also, the EC50, pseudovirus neutralization, Vero E6, with isotype in assay [5] was found to be 0.29 ng/mL. This substance gave an EC80, pseudovirus neutralization, Vero E6, with isotype in assay [6] of 2.9 ng/mL. In assay [7], this substance gave an EC90, pseudovirus neutralization, Vero E6, with isotype of 11 ng/mL. For the same substance, the Emax, pseudovirus neutralization, Vero E6, with isotype (% neutralization) in assay [8] came out at 99.7.
On to sotrovimab VH/VL-hamIgG2a (antibody), for which the EC50, pseudovirus neutralization, Vero E6 in assay [4] amounted to 8.51 ng/mL.
Take sotrovimab VH/VL-huIgG1 (antibody): the EC50, pseudovirus neutralization, Vero E6 in assay [4] is 27.9 ng/mL.
Consider sotrovimab VH/VL-huIgG1-LS (antibody), for which the EC50, pseudovirus neutralization, Vero E6 in assay [4] was found to be 35.2 ng/mL. In addition, the EC50, pseudovirus neutralization, Vero E6, with isotype in assay [5] was 14 ng/mL. The substance further returned an EC80, pseudovirus neutralization, Vero E6, with isotype in assay [6] of 69 ng/mL. The substance further returned an EC90, pseudovirus neutralization, Vero E6, with isotype in assay [7] of 170 ng/mL. In addition, the Emax, pseudovirus neutralization, Vero E6, with isotype (% neutralization) in assay [8] is 98.3.
